Data taken from the supplement of paper PMC7125110.
± gives the standard error. This sample holds only a part of the variants without activity.

B1: glmS ribozyme (parent)
chain: AUAAAAGCGCCAGAACUACAGAAAUGUAGUUGACGAGGAGGAGGUUUAUCGAAUUUUCGGCGGAUGCCUCCAAA

Variants of: B1
Assay: self-cleavage kobs at 2500 uM GlcN6P; higher = faster cleavage; RNA array
Conditions: with glucosamine-6-phosphate
Procedure, shortened: (§1)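 Tiles bearing barcoded ribozyme variants, transcribed in situ by E. coli RNA polymerase on sequenced MiSeq chips, were imaged over ~14 h at 37 °C using a hybridised Cy3 probe. Glucosamine-6-phosphate was supplied at 40 μM to 10 mM in HEPES/KCl/Mg(OAc)2 buffer. kobs came from one- or two-exponential decay fits to normalised per-tile medians, and weighted Michaelis–Menten fits then provided kcat and KM.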

| Variant | self-cleavage kobs at 2500 uM GlcN6P |
| --- | --- |
| AUAAAAGCGCCAGAACUACAGAAAUGUAUUUGACGAGGAGGAGGUUUAUCGAAAUUUAGGCGGAUGCCUCCAAA | 0.000128 ± 3.8e-05 s⁻¹ |
| AUAAAAGCGCCAGACCUACAGAAAUGUAGUUGACGAGGAGGAGGUUUAUCGAAUUUUCGGCGGAUCCCUCCAAA | 0.000277 ± 0.00013 s⁻¹ |
| AUAAAAGCCCCAGGACUACAGAAAUGUAGUUGACGAGGAGGAGGUUUAUCGAAUUUUCGGCGGAUGCCGCCAAA | < 1e-05 s⁻¹ |
| AUAAAAGCGCCAGCCCUACAGAAAUGUAGUUGACGUUGAGGAGGUUUAACGAAUUUUCGGCGGAUGCCUCCAAA | < 1e-05 s⁻¹ |
| AUAAACGCGCCAGGACUACAGAAAUGUAGUUGACGAGGAGGAGGUUUAUUGAAUUUUCGGCGGAUGCCUCCAAA | < 1e-05 s⁻¹ |
| AUAAAAGCGCCAGAACUACAGAAAUGUAGUUUACGAGGAGGCGGUUUAUCGACUAUUCGGCGGAUGCCUCCAAA | < 1e-05 s⁻¹ |
| AUAAAAGCGCCAGAACUACAGAAAUGUAGUUGACGAGGAAGAGGUGGAUCGAAUUUUCGGCGGAUGCCUCCAAA | 0.000358 ± 0.00012 s⁻¹ |
| AUAAAAGCGCCAGAACUACAGAAAUGUAGUUGACGAGGAAGAGGCUUAUCGACUUUUCGGCGGAUGCCUCCAAA | 3.19e-05 ± 1.5e-05 s⁻¹ |
| AUAAAAGCGCCAGAACUACAGAAAUGUAGUUGUCUAGGAGGAGGUUUAUCCAAUUUUCGGCGGUUGCCUCCAAA | < 1e-05 s⁻¹ |
| AUAAAAGCGCCAGAACUACAGAAAUGUAGUUGACGAGGAGGAGGUGUGGCGAAUUUUCAGCGGAUGCCUCCAAA | < 1e-05 s⁻¹ |
| AUAAAAGCGCCAGAAAUACAGAAAUGUAGUAGACGAGGGGGAGGUUUAUCGAAUUUCCGUCGGAUGCCUCCAAA | < 1e-05 s⁻¹ |
| AUAAAAGCGCCAGCACUACAGAAAUGUAGUGGACGAGGAGGAGGUUUAUCGAAUUUUCGGCGGCUGCCUCCAAA | 6.13e-05 ± 2.2e-05 s⁻¹ |
| AUAAAAGCGCCAGUACUACAGAAAUGUAGUUGUCGCGGAGGAGGUUUAUCGAAUUUUCGGCGGAUGCCUCCAAA | < 1e-05 s⁻¹ |
| AUAAAAGCGCCGCAACUACAGAAAUGUAAUUGACGAGGAAGAGGCUUAUCGAAUUUUCGGCGGAUGCCUCCAAA | < 1e-05 s⁻¹ |
| AUAAAAGCGCCAGCACUACAGAAAUGUACCUGACGAGGAGGAGGUUUAUCGUAUUUUCGGCGGAAGCCUCCAAA | < 1e-05 s⁻¹ |
| AUAAAAGCUCCAGAAUUACAGAAAUGUAGUUGUCGAGGAGGAGGUUUAUCGAAUUUUCGGCGGAUGCCUCCAAA | < 1e-05 s⁻¹ |
| AUAAAAGCGCCAGAAAUACAGAAAUGUAGUUGACGAGGAGCAGGUUUAUCGAAUUUUCGGCGGAUGCCUUCAAA | 5.88e-05 ± 1.8e-05 s⁻¹ |
| AUAAAAGCGCCAGAACUACAGAAAUGUAGUUGACGAGGAGGCGGUUUAUCGAAUUGUCGGCGGACGCCUCUAAA | < 1e-05 s⁻¹ |

| Variant | self-cleavage kobs at 2500 uM GlcN6P |
| --- | --- |
| AUAAAAGCGCCAGAACUACAGAAAUGUAGUUGACGAGGAGGAGGUUUAUAGAAUUUUCGGCGGAGGCCGACAAA | 8e-05 ± 2.9e-05 s⁻¹ |
| AUAAAAGCGCCAGGACUACAGAAAUGUAGUUGACGAGGAGGAGGUUUAUCGUGUUUUCGGCGGAUGCCUCCAAA | 0.000141 ± 3.3e-05 s⁻¹ |
| AUAAAAGCGCCAGAACUACAGAAAUCUAGUUGACGAGGAGGAGGUUCAUCGAAUUUUCGCCGGAUGCCUCCAAA | < 1e-05 s⁻¹ |
| AUAAAAGCGCCAGAACUACAGAAAUGUAGCUGACAAGGAGGAGGUUUAUCGAAUUUUCGGCGGAUGGCUCCAAA | < 1e-05 s⁻¹ |
| AUAAAAGGGCCAGAAAUACAGAAAUGUAGUUGACGAGGAGGAUUUUUAUCGAAUUUUCGGCAGAUGCCUCCAAA | < 1e-05 s⁻¹ |
| AUAAAACCGCCAGAACUACAGAAAUGUAAUUGACGUGGAGGAGGUUUAUCGAAUUUUCGGCGGAUGCCUCAAAA | < 1e-05 s⁻¹ |
| AUAAAAGCGCCAGAACUACAGAAAUGUAGUUGACGAGGAGGAGGUUCAUCGAAUUUUCGGGGGAUGCCUCCAAA | < 1e-05 s⁻¹ |
| AUAAAAGCGCCAGAACUACAGAAAUGUAAUUGACGAGGUUGAGGUUUAUCGAAUUUUCGGCGGAUGCCUCCAAA | 0.000177 ± 3.8e-05 s⁻¹ |
| AUAAAAGCGCCAGUACUACAGAAAUGUAGUUGACGAGGAGGAGGUUUUUCGAAGUUUCGCCGGAUGCCACUAAA | 4.74e-05 ± 1.9e-05 s⁻¹ |
| AUAAAAGCGCCAGAACUACAGAAAUGUACUUGACGAGGAGGAGGUUUAUCGAAGUUUCGGCGGAUGCAUCGAAA | 9.33e-05 ± 4.3e-05 s⁻¹ |
| AUAAAAGCGCCAGAACUACAGAAAUGUAGUUGACGAGGAUGAGGUUUAUCGAAGUUUCGGCGGAUGCUUCCAAA | 0.000121 ± 4.4e-05 s⁻¹ |
| AUAAAAUCGCCAGCAAUACAGAAAUGUAGUUGACGAGGAGGAGGUUUAUCGAAUUUUCGGCGGAUGCCUCCAAA | < 1e-05 s⁻¹ |
| AUAAAAGCGCCAGAACUACAGAAAUGUAGUUGACGAGGAGGAGGUUUAUCGGUUUUUCGGCGGAUCGCUCCAAA | < 1e-05 s⁻¹ |
| AUAAAAGCGCCAGAACUACAGAAAUGUAUUUGACGAGGUGGAGGUUUAUCGAAUUUUCCGAGGAUGCCUCCAAA | < 1e-05 s⁻¹ |
| AUAAAAGCGCCAGAUCUACAGAAAUGUAGUUGUCGAGGAGGAGGUUUAUCGAAUUUUCUGCGGAUGCCUCCAAA | < 1e-05 s⁻¹ |
| AUAAAAGCGCCAGAACUACAGAAAUGUAGUUGACGAGGAGGAGGUUUAUCGAAUUUUCGGCGCAUUCCUCAAAA | < 1e-05 s⁻¹ |
| AUAAAAGCGCCAGAACUACAGAAAUGUAGUUGACGAGCAGGAGGUUUAUCGAAUUUUCCGCGGAUGCCUCGAAA | < 1e-05 s⁻¹ |
| AUAAAAGCACCAGAACUACAGAAAUGUACUUGACGAGCAGGAGGUUUAUCGAAUUUUCGGCGGUUGCCUCCAAA | < 1e-05 s⁻¹ |

Variants of: B1
Assay: self-cleavage kobs at 10000 uM GlcN6P; higher = faster cleavage; RNA array
Conditions: with glucosamine-6-phosphate
Procedure, shortened: as §1

| Variant | self-cleavage kobs at 10000 uM GlcN6P |
| --- | --- |
| AUAAAAGCGCCAGAACUACAGAAAUGUAGUUGACGAGGAGGAGGUUCAUCGAAUUUUCGGGGGAUGCCUCCAAA | < 1e-05 s⁻¹ |
